T1: TIGIT (SPR analyte) (human, UniProt Q495A1 22-141, limits assumed)
T1 construct: the text says only 'TIGIT was used as the analyte'; The construct is not described; also called human TIGIT
T1 sequence (looked up): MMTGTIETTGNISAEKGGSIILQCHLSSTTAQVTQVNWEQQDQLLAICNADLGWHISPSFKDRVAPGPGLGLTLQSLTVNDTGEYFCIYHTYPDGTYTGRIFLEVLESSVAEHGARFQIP

T2: human TIGIT/mIgG2aFc recombinant protein (human, UniProt Q495A1 22-141)
T2 construct: range 22-141; In-house production; also called TIGIT/mIgG2aFc protein; human TIGIT/mIgG2aFc protein; not shown: mouse IgG2a Fc
T2 sequence (looked up): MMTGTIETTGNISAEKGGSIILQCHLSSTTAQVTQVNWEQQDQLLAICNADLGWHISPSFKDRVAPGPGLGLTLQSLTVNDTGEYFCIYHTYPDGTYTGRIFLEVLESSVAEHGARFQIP

T3: full-length human TIGIT on Jurkat/TIGIT cells (human, UniProt Q495A1 22-244)
T3 construct: whole, on cells; also called Human TIGIT-expressing Jurkat cells; TIGIT expressed on cell surface
T3 sequence (looked up): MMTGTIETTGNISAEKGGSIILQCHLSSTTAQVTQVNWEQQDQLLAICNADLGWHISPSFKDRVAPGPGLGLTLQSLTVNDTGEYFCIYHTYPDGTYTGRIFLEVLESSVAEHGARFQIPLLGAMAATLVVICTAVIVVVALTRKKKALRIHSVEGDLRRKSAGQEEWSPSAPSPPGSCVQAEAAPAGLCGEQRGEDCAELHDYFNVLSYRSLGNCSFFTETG

B1: Chimeric VH+VL (Parental mouse VH+VL combined with human Fc) (antibody, human IgG1, kappa, V domains shown)
VH: QVQLQQSGAELMKPGASVKISCKATGYTFSRYWIEWVKQRPGHGLEWIGEIFPGSGGTNYNEKFKGKATFTADTSSNTAYMQLTSLTSEDSAVYYCARHLGALDYWGQGTSVTVSS
VL: QIVLTQSPAIMSASPGEKVTISCSASSSVSYIHWYQQKAGSSPKPWIYRTSNLASGVPARLSGSGSGTSYFLTISSMEAEDAATYYCQQYHSNPWTFGGGTKLEIKR
notes: also called chimeric antibody
B2: VH3 + VL3 (antibody, human IgG1, kappa, V domains shown)
VH: QVQLVQSGAEVKKPGASVKVSCKASGYTFSRYWIEWVRQAPGQGLEWMGEIFPGSGGTNYNEKFKGRVTMTRDTSTSTVYMELSSLRSEDTAVYYCARHLGALDYWGQGTLVTVSS
VL: EIVLTQSPGTLSLSPGERATLSCSASSSVSYIHWYQQKPGQAPRLLIYRTSNLASGIPDRFSGSGSGTDFTLTISRLEPEDFAVYYCQQYHSNPWTFGGGTKLEIKR
notes: Humanized full-length IgG; also called HC2 + LC2
B3: VH4 + VL2 (antibody, human IgG1, kappa, V domains shown)
VH: EVQLVQSGAEVKKPGESLKISCKGSGYTFSRYWIEWVRQMPGKGLEWMGEIFPGSGGTNYNEKFKGQVTISADKSISTAYLQWSSLKASDTAMYYCARHLGALDYWGQGTLVTVSS
VL: DIQMTQSPSSLSASVGDRVTITCSASSSVSYIHWYQQKPGKAPKLLIYRTSNLASGVPSRFSGSGSGTDFTLTISSLQPEDFATYYCQQYHSNPWTFGGGTKLEIKR
notes: Humanized full-length IgG; also called HC3 + LC1
B4: anti-TIGIT antibody VH2+VL4 (antibody, human IgG1, kappa)
heavy: not shown
light: DIVMTQSPDSLAVSLGERATINCSASSSVSYIHWYQQKPGQPPKLLIYRTSNLASGVPDRFSGSGSGTDFTLTISSLQAEDVAVYYCQQYHSNPWTFGGGTKLEIKRTVAAPSVFIFPPSDEQLKSGTASVVCLLNNFYPREAKVQWKVDNALQSGNSQESVTEQDSKDSTYSLSSTLTLSKADYEKHKVYACEVTHQGLSSPVTKSFNRGEC
notes: Biotin-labeled in the cynomolgus TIGIT flow cytometry assay; also called HC1 + LC3
B5: VH3 + VL4 (antibody, human IgG1, kappa, V domains shown)
VH: QVQLVQSGAEVKKPGASVKVSCKASGYTFSRYWIEWVRQAPGQGLEWMGEIFPGSGGTNYNEKFKGRVTMTRDTSTSTVYMELSSLRSEDTAVYYCARHLGALDYWGQGTLVTVSS
VL: DIVMTQSPDSLAVSLGERATINCSASSSVSYIHWYQQKPGQPPKLLIYRTSNLASGVPDRFSGSGSGTDFTLTISSLQAEDVAVYYCQQYHSNPWTFGGGTKLEIKR
notes: Humanized full-length IgG; also called HC2 + LC3

How the values were obtained:
TIGIT (SPR analyte) = molecular target: T1, TIGIT (SPR analyte); experiment: SPR (Biacore 8K), antibody captured through Fc, TIGIT as analyte
Description: TIGIT was used as the analyte. The surface was regenerated before the injection of another antibody. The process was repeated until all antibodies are analyzed. The off-rates of antibodies were obtained from fitting the experimental data locally to 1:1 interaction model using the Biacore 8K evaluation software. The antibodies were ranked by their dissociation rate constants (off-rates, kd) (Table 1). Based on the ranking result, the top 4 clones were selected.

[1] = molecular target: T2, human TIGIT/mIgG2aFc recombinant protein; experiment: ELISA, plate coated with human TIGIT/mIgG2aFc, anti-human IgG-HRP detection
Description: MaxiSorp 96-well plates (NUNC #449824) were coated with 2 μg/mL human TIGIT/mIgG2aFc protein (in-house production, the method is well known in the art) in 1× PBS (50 μL/well). Plates were incubated at 4° C. overnight. Coating solution was removed and plates were washed once with 200 μL/well PBST (1× PBS containing 0.05% tween-20). Then 200 μL/well blocking buffer (1× PBS with 0.05% tween-20, 3% BSA) was added and incubated at room temperature for 1 hour. Blocking buffer was removed and plates were washed three times with 200 μL/well PBST. Antibody VH2+VL4 (produced in Example 2) and human IgG1 isotype control (hIgG1, Sigma #I5154-1MG) was diluted by 1× PBS and added to plates (50 μL/well). Plates were incubated at room temperature for 2 hours. Antibodies in the wells were removed and plates were washed three times with 200 μL/well PBST. Goat anti-human IgG(H&L)-HRP secondary antibody (Jackson Immuno Research #109-035-088) was diluted 1:5000 in 1× PBS and added to each well (50 μL/well). Plates were incubated at room temperature for 1 hour. Secondary antibody was removed and plates were washed five times with 200 μL/well PBST. 50 μL/well TMB (eBioscience #85-00-4201-56) was added and plates were incubated at room temperature for several minutes. Then 50 μL/well 2N H₂SO₄ was added to stop the reaction. Optical density was measured at 450 nm.

[2] = molecular target: T3, full-length human TIGIT on Jurkat/TIGIT …; experiment: flow cytometry on Jurkat/TIGIT cells, Alexa Fluor 594 goat anti-human IgG secondary antibody, readout % of bound cells
Description: Jurkat/TIGIT cells were incubated with different concentrations of anti-TIGIT antibody VH2+VL4 or human IgG1 isotype control at 4° C. for 30 minutes. Then cells were washed once by FACS buffer (PBS with 2% FBS) and incubated with Alexa Fluor 594 AffiniPure Goat Anti-human IgG secondary antibody (Jackson ImmunoResearch #109-585-088) at 4° C. for 30 minutes. After washed once by FACS buffer, cells were resuspended in 200 μL FACS buffer. The cells after staining were analyzed by BD LSRFortessa Flow Cytometer.

[3] = molecular target: T4, full-length cynomolgus TIGIT on 293T cells (cynomolgus, UniProt A0A7N9I9V4 89-312); experiment: flow cytometry on 293T cells transfected with cynomolgus TIGIT, biotin-labeled antibody detected with Brilliant Violet 421 streptavidin, readout % of bound cells
T4 construct: whole, on cells; also called cynomolgus-expressing 293T cells
Description: A DNA encoding full-length cynomolgus TIGIT (NCBI Accession No: XP_015300911.1) was cloned into pcDNA3.4 vector (Invitrogen #A14697) and transfected into 293T cells (Cell Bank, Chinese Academy of Sciences, #SCSP-502) by using Polyethylenimine Max reagent (Polysciences #24765-2). 48 hours post-transfection, cynomolgus-expressing 293T cells were incubated with different concentrations of biotin-labeled (Thermo #21338) anti-TIGIT antibody VH2+VL4 at 4° C. for 20 minutes. Then cells were washed once by FACS buffer (PBS with 2% FBS) and incubated with Brilliant Violet 421 Streptavidin (Biolegend #405225) at 4° C. for 30 minutes. After washed once by FACS buffer, cells were resuspended in 200 μL FACS buffer. The cells after staining were analyzed by BD FACSCelesta Flow Cytometer.

T4 sequence (A0A7N9I9V4 entry or part of it): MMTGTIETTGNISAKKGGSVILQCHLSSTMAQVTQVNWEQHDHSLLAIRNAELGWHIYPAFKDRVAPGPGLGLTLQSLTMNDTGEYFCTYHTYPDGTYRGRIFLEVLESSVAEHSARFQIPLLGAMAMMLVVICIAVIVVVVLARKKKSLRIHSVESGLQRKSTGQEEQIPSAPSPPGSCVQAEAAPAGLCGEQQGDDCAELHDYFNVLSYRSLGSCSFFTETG

Row | Binder | Kd (TIGIT (SPR analyte)) [pM] | koff (TIGIT (SPR analyte)) [s⁻¹] | kon (TIGIT (SPR analyte)) [M⁻¹ s⁻¹] | EC50 [1] [pM] | EC50 [2] [pM] | EC50 [3] [pM]
1 | B1 | 179 | 5.56e-05 | 310000 | – | – | –
2 | B2 | 111 | 3.25e-05 | 294000 | – | – | –
3 | B3 | 122 | 4.97e-05 | 407000 | – | – | –
4 | B4 | 101 | 4.47e-05 | 444000 | 470 | 1130 | 20
5 | B5 | 110 | 4.38e-05 | 396000 | – | – | –
